Assay results published in patent US20160194394A1 (GOVERNING COUNCIL OF THE UNIVERSITY OF TORONTO, published 2016).
Changes are numbered by the printed parent chain. Read-outs that look alike come from different tables or passages of the source.

T1: human Fzd5-Fc
T1 construct: also called FZD5 ECD; Fzd5 CRD-Fc fusion protein (R&D systems); not shown: exact vendor limits of the CRD construct
T1 chain: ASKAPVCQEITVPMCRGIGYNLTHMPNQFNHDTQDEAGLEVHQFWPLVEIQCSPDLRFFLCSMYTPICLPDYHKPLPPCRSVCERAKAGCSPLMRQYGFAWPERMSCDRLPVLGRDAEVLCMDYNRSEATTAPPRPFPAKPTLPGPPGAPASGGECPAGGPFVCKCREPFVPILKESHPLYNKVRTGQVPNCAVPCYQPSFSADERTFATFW

T2: human Fzd8-Fc
T2 construct: also called FZD8 ECD; Fzd8 CRD-Fc fusion protein (R&D systems); not shown: exact vendor limits of the CRD construct
T2 chain: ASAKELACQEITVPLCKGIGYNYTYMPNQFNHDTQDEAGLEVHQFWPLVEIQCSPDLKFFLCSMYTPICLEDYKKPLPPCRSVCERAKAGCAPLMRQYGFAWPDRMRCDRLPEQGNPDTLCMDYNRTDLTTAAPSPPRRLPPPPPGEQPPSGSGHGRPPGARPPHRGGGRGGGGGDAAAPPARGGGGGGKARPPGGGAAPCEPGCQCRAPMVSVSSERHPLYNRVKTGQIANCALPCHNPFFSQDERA

B1: Fab H1 (Fab)
chain 1: EVQLVESGGGLVQPGGSLRLSCAASGFNISSSYIHWVRQAPGKGLEWVAYIYSSYGSTYYADSVKGRFTISADTSKNTAYLQMNSLRAEDTAVYYCARASWYALDYWGQGTLVTVSSASTKGPSVFPLAPSSKSTSGGTAALGCLVKDYFPEPVTVSWNSGALTSGVHTFPAVLQSSGLYSLSSVVTVPSSSLGTQTYICNVNHKPSNTKVDKKVEPKSC
chain 2: DIQMTQSPSSLSASVGDRVTITCRASQSVSSAVAWYQQKPGKAPKLLIYSASSLYSGVPSRFSGSRSGTDFTLTISSLQPEDFATYYCQQYWYGVAPITFGQGTKVEIKRTVAAPSVFIFPPSDSQLKSGTASVVCLLNNFYPREAKVQWKVDNALQSGNSQESVTEQDSKDSTYSLSSTLTLSKADYEKHKVYACEVTHQGLSSPVTKSFNRGECGGS
B2: IgG D10 (antibody, V domains shown)
VL: DIQMTQSPSSLSASVGDRVTITCRASQSVSSAVAWYQQKPGKAPKLLIYSASSLYSGVPSRFSGSRSGTDFTLTISSLQPEDFATYYCQQYWAPITFGQGTKVEIK
VH: EVQLVESGGGLVQPGGSLRLSCAASGFNIYYYYMHWVRQAPGKGLEWVASIYSYSGSTYYADSVKGRFTISADTSKNTAYLQMNSLRAEDTAVYYCARYASYVGYYPWALDYWGQGTLVTVSS
notes: Fab converted into full-length IgG1, made in 293F cells
B3: IgG G6 (antibody, V domains shown)
VL: B2 VL with W92Y, A93S, P94L, I95F
VH: EVQLVESGGGLVQPGGSLRLSCAASGFNIYYYSMHWVRQAPGKGLEWVAYISPSYGYTYYADSVKGRFTISADTSKNTAYLQMNSLRAEDTAVYYCARGYFYSWGGMDYWGQGTLVTVSS
notes: as for B2
B4: Fab E4 (Fab)
chain 1: EVQLVESGGGLVQPGGSLRLSCAASGFNLSYYSMHWVRQAPGKGLEWVASIYPSYGYTYYADSVKGRFTISADTSKNTAYLQMNSLRAEDTAVYYCARPSPGSYHGMDYWGQGTLVTVSSASTKGPSVFPLAPSSKSTSGGTAALGCLVKDYFPEPVTVSWNSGALTSGVHTFPAVLQSSGLYSLSSVVTVPSSSLGTQTYICNVNHKPSNTKVDKKVEPKSC
chain 2: DIQMTQSPSSLSASVGDRVTITCRASQSVSSAVAWYQQKPGKAPKLLIYSASSLYSGVPSRFSGSRSGTDFTLTISSLQPEDFATYYCQQSSYSLITFGQGTKVEIKRTVAAPSVFIFPPSDSQLKSGTASVVCLLNNFYPREAKVQWKVDNALQSGNSQESVTEQDSKDSTYSLSSTLTLSKADYEKHKVYACEVTHQGLSSPVTKSFNRGECGGS
B5: IgG E8 (antibody, V domains shown)
VH: EVQLVESGGGLVQPGGSLRLSCAASGFNIYSSYIHWVRQAPGKGLEWVAYIYSYSGYTYYADSVKGRFTISADTSKNTAYLQMNSLRAEDTAVYYCARWYHPYWYASAIDYWGQGTLVTVSS
VL: DIQMTQSPSSLSASVGDRVTITCRASQSVSSAVAWYQQKPGKAPKLLIYSASSLYSGVPSRFSGSRSGTDFTLTISSLQPEDFATYYCQQVSGGGGLITFGQGTKVEIK

How the values were obtained:
[1] = molecular target: T3, recombinant Frizzled receptor 7 (FZD7) cysteine-rich domain (CRD) fused to the Fc region of human IgG (human, UniProt O75084 33-185); experiment: competitive ELISA, detected phage-Fab H1
[2] = molecular target: T3, recombinant Frizzled receptor 7 (FZD7) …; experiment: competitive ELISA, detected phage-Fab E4
[3] = molecular target: T4, FZD7 receptor expressed on cells (full-length) (UniProt O75084 33-574, limits assumed); experiment: cell-based or functional assay
[4] = molecular target: T3, recombinant Frizzled receptor 7 (FZD7) …; experiment: competitive ELISA, detected phage-Fab G2
[5] = molecular target: T3, recombinant Frizzled receptor 7 (FZD7) …; experiment: competitive ELISA, detected phage-Fab E8
[6] = molecular target: T3, recombinant Frizzled receptor 7 (FZD7) …; experiment: competitive ELISA, detected phage-Fab H10
[7] = molecular target: T3, recombinant Frizzled receptor 7 (FZD7) …; experiment: ELISA, 1ug/ml (20nM) Fab [cont'd]
Summary of the method: (§1)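 Plates coated with 2 ug/ml FZD7-Fc or Fc protein were probed with bacterially expressed purified Fabs for 1 h at room temperature in 0.5% BSA/0.05% Tween20/PBS. Bound Fab detected with anti-FLAG-HRP for 45 min, developed with TMB and acid stop, and read as absorbance at 450 nm; n.t. = not tested.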

[8] = molecular target: T3, recombinant Frizzled receptor 7 (FZD7) …; experiment: competitive ELISA, detected phage-Fab D10
[9] = molecular target: T3, recombinant Frizzled receptor 7 (FZD7) …; experiment: ELISA, 10ug/ml (200nM) Fab [cont'd]
Summary of the method: as §1

[10] = molecular target: T3, recombinant Frizzled receptor 7 (FZD7) …; experiment: competitive ELISA, detected phage-Fab H3
[11] = molecular target: T3, recombinant Frizzled receptor 7 (FZD7) …; experiment: competitive ELISA, detected phage-Fab G6
[12] = molecular target: T4, FZD7 receptor expressed on cells …; experiment: flow cytometry, 200 nM Fab, MDA MB 231 [cont'd]
Summary of the method: (§2)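 EDTA-harvested MDA MB 231 cells, either FZD7-overexpressing or with endogenous receptor, were blocked in 2% FBS/PBS and stained with Fab for 30 min on ice. Detection used anti-F(ab′)₂-APC (1:1000, 15 min on ice), then 1% paraformaldehyde fixation and flow cytometry. Values are percent of cells in positive gates.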

[13] = molecular target: T3, recombinant Frizzled receptor 7 (FZD7) …; experiment: SPR
[14] = molecular target: T4, FZD7 receptor expressed on cells …; experiment: flow cytometry, 200 nM Fab, FZD7 over-expression line (MDA MB 231) [cont'd]
Summary of the method: as §2

[15] = molecular target: T3, recombinant Frizzled receptor 7 (FZD7) …; experiment: competitive ELISA, detected phage-Fab A1
mouse Fzd2-Fc = molecular target: T5, mouse Fzd2-Fc; experiment: SPR
T5 construct: also called mFZD2 ECD; Fzd2 CRD-Fc fusion protein (R&D systems); not shown: exact vendor limits of the CRD construct
T5 sequence (chain, as listed by the source limits assumed): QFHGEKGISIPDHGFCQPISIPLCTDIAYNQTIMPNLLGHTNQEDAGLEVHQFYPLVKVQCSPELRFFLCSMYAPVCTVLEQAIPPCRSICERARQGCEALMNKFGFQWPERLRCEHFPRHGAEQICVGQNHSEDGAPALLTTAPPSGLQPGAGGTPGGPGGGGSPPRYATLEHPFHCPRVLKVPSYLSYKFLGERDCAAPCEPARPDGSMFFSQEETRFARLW

[16] = molecular target: T3, recombinant Frizzled receptor 7 (FZD7) …; experiment: SPR; remark: listed apart in the source
human Fzd1-Fc = molecular target: T6, human Fzd1-Fc; experiment: SPR
T6 construct: also called FZD1 ECD; Fzd1 CRD-Fc fusion protein (R&D systems); not shown: exact vendor limits of the CRD construct
T6 sequence (chain, as listed by the source limits assumed): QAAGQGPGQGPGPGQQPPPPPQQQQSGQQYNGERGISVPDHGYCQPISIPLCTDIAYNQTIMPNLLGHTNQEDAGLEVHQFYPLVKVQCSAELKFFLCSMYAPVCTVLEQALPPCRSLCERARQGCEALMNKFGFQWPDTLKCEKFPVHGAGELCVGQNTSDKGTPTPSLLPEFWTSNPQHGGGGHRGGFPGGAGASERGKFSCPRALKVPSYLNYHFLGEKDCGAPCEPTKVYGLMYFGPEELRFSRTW

[17] = molecular target: T4, FZD7 receptor expressed on cells …; experiment: cell-based or functional assay; remark: listed apart in the source
[18] = molecular target: recombinant Frizzled receptor 7 (FZD7) cysteine-rich domain (CRD) fused to the Fc region of human IgG (human, UniProt O75084 33-185); experiment: SPR; remark: listed apart in the source
human Fzd5-Fc = molecular target: T1, human Fzd5-Fc; experiment: SPR
human Fzd8-Fc = molecular target: T2, human Fzd8-Fc; experiment: SPR

Binder | % of Fab phage in presence of 750 nM Fab [1] [%] | % of Fab phage in presence of 750 nM Fab [2] [%] | decrease in Wnt 3a-induced transcriptional activity (TOP-FLASH luciferase reporter in MDA MB 231 cells, 400 nM Fab) [3] [%] | % of Fab phage in presence of 750 nM Fab [4] [%] | % of Fab phage in presence of 750 nM Fab [5] [%] | % of Fab phage in presence of 750 nM Fab [6] [%] | OD 450 [7] | % of Fab phage in presence of 750 nM Fab [8] [%] | OD 450 [9] | % of Fab phage in presence of 750 nM Fab [10] [%] | % of Fab phage in presence of 750 nM Fab [11] [%] | % population within the positive gate [12] [%] | Kd [13] [nM] | koff [13] [s⁻¹] | kon [13] [M⁻¹ s⁻¹] | % population within the positive gate [14] [%] | % of Fab phage in presence of 750 nM Fab [15] [%] | Kd (mouse Fzd2-Fc) [nM] | Kd [16] [nM] | Kd (human Fzd1-Fc) [nM] | also measured
B1 | 8.5 | 12 | > 70 | 4.5 | 6.7 | 4.3 | 3.2 | 4.7 | 3.19 | 18.3 | 10.4 | 99 | 0.537 | 0.000457 | 852000 | 94.7 | 4.5 | 0.57 | 0.54 | 0.64 | 
B2 |  |  |  |  |  |  |  |  |  |  |  |  |  |  |  |  |  |  |  |  | IC50, Wnt3a-induced Top Flash reporter (% ligand mediated) [17]: 123 nM; Kd [18]: 1.45 nM
B3 |  |  |  |  |  |  |  |  |  |  |  |  |  |  |  |  |  |  |  |  | Kd [18]: 0.3 nM
B4 | 21.9 | 5.1 | > 70 | 4.6 | 5.9 | 3.2 | 3.24 | 6.1 | 3.27 | 10.5 | 7.4 | 98.8 | 0.422 | 0.000803 | 1.9e+06 | 93.4 | 6.5 | 0.65 | 0.42 | 0.33 | Kd (human Fzd5-Fc): 1.43 nM; Kd (human Fzd8-Fc): 0.88 nM
B5 |  |  |  |  |  |  |  |  |  |  |  |  |  |  |  |  |  |  |  |  | IC50, Wnt3a-induced Top Flash reporter (% ligand mediated) [17]: 106 nM
